Experimental data published in US20250075191A1, “MODIFIED BIOLUMINESCENT ENZYMES” (Light Bio, Inc., priority 2023, published 2025).

Legend:
Pichia pastoris GS115 = assay: Luminescence imaging of transformed yeast after addition of luciferin, hispidin or caffeic acid; format: cell-based
Description: Integration of plasmids into the genome of Pichia pastoris GS115 was targeted at the GAP promoter locus. Linearized plasmids were used for the transformation of electrically competent yeast cells. Colonies were selected using […] of G418 or 200 mg/ml of hygromycin or 50 mg/ml of zeocin. PCR-based screening of yeast colonies was done by heating up colonies in 10 μl of 20 mM NaOH at 90° C. for 7 min and then using 1 μl of the resulting solution for direct PCR. For luminescence imaging, yeast culture grown on plate was resuspended in 50 μL of 1M sorbitol. 5 μL of the suspension was then added in 3 replicates to YPD agar plates lacking antibiotics. […] Imaging was performed in Fusion Pulse (Vilber, France), with exposure of 0.1 or 5 sec every 3 or 5 min for 1.0-1.5 hours—for caffeic acid treatment, with exposure of 20 sec for 20 mins—for hispidin treatment, with exposure of 0.5 sec every 10 sec for 10 mins in case of luciferin treatment.
Processing of images was performed using FiJi ImageJ distribution (version 1.53t) 20 and custom Python scripts (Python version 3.8). For luminescence quantification mean values in the region of interest after background subtraction were used. Background subtraction was performed using the following formula: signal=signalraw−(backgroundmean−3*backgroundSD).

[1] = system: HEK293NT or HEK293 cell lines; assay: Pathway luminescence in transfected mammalian cells in the presence of caffeic acid; format: cell-based; conditions: gene set expressing nnLuz_WT, mcitHispS, nnCPH, and NpgA
Description: In different sets of experiments, HEK293NT or HEK293 cell lines were seeded in 96-well plates (ibidi, ibiTreat μ-Plate 96 Well Black). Cells were transfected with a mixture of the five plasmids that encoded variants of nnLuz, and nnH3H, along with nnHispS or mcitHispS, nnCPH, and NpgA by PolyFect Transfection Reagent (QIAGEN) according to the manufacturer's protocol, using 2 μl PolyFect per well and a mixture of plasmids containing 44 ng of plasmid expressing nnLuz, and equivalent amounts of the other four plasmids according to their size. Transfected cells were grown in DMEM (PanEco) supplemented with 10% fetal bovine serum (HyClone), 4 mM L-glutamine, 10 U/ml penicillin and 10 µg/ml streptomycin, at 37° C. and 5% CO2. Twenty-four hours after transfection, the medium was changed to 25 μM or 100 μM caffeic acid solution (0.1% DMSO in DPBS) and luminescence was imaged for 23 minutes by IVIS Spectrum CT (PerkinElmer) at 37° C. every 9 seconds with open filter, binning of 16 and exposure of 5 seconds. The number of independent replicates is included in the figure's legends.

HEK293 cells = assay: Luciferase luminescence by transient expression in HEK293 cells after luciferin addition; format: cell-based; conditions: living HEK293 cells, luciferin 740 μM final concentration
Description: Production of luminescence by nnLuz_v3 was measure in E. coli lysates by the above method, and in mammalian cells (HEK293 cells). The HEK293 cells were transfected using the FugeneHD transfection reagent (Promega) according to the manufacturer's instructions. Cells were grown overnight under CO2 at 37° C. in 96-well white assay plates. For luminescence measurements, media was removed and replaced with 100 μl of CO2 independent media (Life Technologies 18045) containing 10% FBS. 33 μl of luciferin was added to cells (740 μM final concentration). The luminescence was measured using a GloMax-Multi+luminometer (Promega).

[2] = Enzyme thermostability in cleared E. coli lysates incubated at 22° C.; format: biochemical; conditions: then 100 μM luciferin
Description: To assess the effect on enzyme thermostability by the amino acid substitutions, lysates of transformed E. coli were prepared by sonication and cleared by centrifugation. The cleared lysates were diluted 1:100 into Tris-buffered saline with 0.01% BSA and 0.1% n-dodecyl β-D-maltoside. 100 μl of each diluted lysate were added to a 96-well PCR plate. Samples were incubated at 22° C. and at various time points aliquots were placed on ice. When all of the samples were processed, 50 μl of each was combined with 50 μl of 100 μM luciferin in Tris-buffered saline with 0.01% BSA and 0.1% n-dodecyl β-D-maltoside. Samples were immediately placed in a GloMax®-Multi+luminometer (Promega) to measure bioluminescence.

[3] = Luciferase luminescence in E. coli lysates after luciferin addition; format: biochemical; conditions: 100 μM luciferin, maximal brightness
Text: A library of amino acid substitutions was created applying mutagenesis to a gene encoding the luciferase derived from Neonothopanus nambi (SEQ ID NO: 8). pF4Ag shuttle vector (Promega) was used for gene expression in E. coli (T7 promoter-driven expression) and mammalian cells (CMV promoter-driven expression). The pF4Ag vector backbone introduces a C-terminal 3×-FLAG-HiBiT tag. Site-directed mutagenesis was used to substitute consensus amino acids at selected position in the luciferase sequence. Gene expression was performed in the E. coli strain KRX (Promega), which enables rhamnose-inducible expression of T7 RNA polymerase.
Colonies (in triplicate) were used to inoculate LB broth containing ampicillin ([…]) and cultures grown overnight in 96-well microtiter plates (20 hours, 37° C.). Cultures were diluted into fresh LB containing 0.1% rhamnose and ampicillin and grown for 3 hours at 37° C. 50 μl of the induced culture was lysed for 5 minutes at ambient temperature with a reagent consisting of 25 mM HEPES pH 7.5 and 0.3×PLB (E1941 Promega). 50 μl of lysate was combined with 50 μl luciferin (100 μM) in the lysis buffer and samples were measured for total luminescence using a GloMax®-Multi+luminometer. (Promega).

[4] = system: yeast cells (P. pastoris); assay: Stability of luciferase within yeast cells after 10 min incubation at different temperatures; format: cell-based; conditions: then luciferin
Description: To evaluate stability of nnLuz_WT and nnLuz_v4 within yeast cells, strains expressing nnLuz WT or nnLux_v4 were grown on plates for 24 hours, then resuspended in PBS to final OD (600 nm)=5 and 50 μl was placed in wells of a 96-well PCR plate. Different portions of the plate were incubated at different temperatures for 10 minutes using a gradient thermal cycler. The plate were then placed on ice for 5 minutes and 10 μl of 500 μM luciferin (2% DMSO, 10 mM thioglycolic acid, 0.1% DDM in DPBS) were added to each well. Then 25 μl of suspension from each well was transferred to a black 96-well plate containing 0.2 M sodium phosphate buffer with 0.5 M Na2SO4,pH=8.

[5] = Michaelis-Menten kinetics of HiBiT-fused luciferase in yeast lysates; format: biochemical; conditions: fitted Michaelis-Menten model
Text: To quantify the activity of nnLuz_v4 relative to the parental nnLuz_WT, genetic fusions were made with the HiBiT tag. The HiBiT tag is a small bioluminescent marker that may be appended onto other proteins, thereby providing a mechanism for measuring relative protein concentration. By fusing the tag onto the C-terminus of luciferase, variability in protein concentration can be normalized across independent samples.
Yeast strains expressing fusions of nnLuz_WT and nnLuz_v4 with HiBiT were inoculated into YPD medium and cultured at 30° C. with 220 rpm for 18-20 hours. Then 4 ml of each yeast suspension were centrifuged at 5000 g (4° C.) and resuspended in 400 μL of 100 mM MOPS (pH=7.5), 4 mM EDTA, 2 mM TCEP, 1 mM PMSF. […]
Samples were diluted 25 fold in the same buffer as used for lysis and concentrated to a volume of 200 μL using Amicon Ultra-15 Centrifugal Filter Unit 10 kDa (Millipore). […] Luminescence was measured in Tecan Spark plate-reader with exposure of 500 ms for 15 min. Activity of each variant was normalized to the expression level of HiBiT, as quantified with HiBiT lytic reagent (Promega N3030).
To quantify luminescence, intensity values of the wells were normalized by the integral values for HiBiT luminescence kinetics. Then, the integral signal for each sample was calculated. […]

B1: nnH3H_v2: N. nambi hispidin hydroxylase with D37E, V181I, S323M, and M385K (SEQ ID NO: 6) (protein, listed as Neonothopanus nambi)
chain: MASFENSLSVLIVGAGLGGLAAAIALRRQGHVVKIYESSSFKAELGAGLAVPPNTLRSLQQLGCNTENLNGVDNLCFTAMGYDGSVGMMNNMTDYREAYGTSWIMVHRVDLHNELMRIALDPGGLGPPATLHLNHRVTFCDVDACTVTFTNGTTQSADLIVGADGIRSTIRRFVLEEDVTVPASGIVGFRWLVQADALDPYPELDWIVKKPPLGARLISTPQNPQSGVGLADRRTIIIYACRGGTMVNVLAVHDDERDQNTADWSVPASKDDLFRVFHDYHPRFRRLLELAQDINLWQMRVVPVLKKWVNKRVCLLGDAAHAMLPTLGQGFGMGLEDAVALGTLLPKGTTASQIETRLAVYEQLRKDRAEFVAAESYEEQYVPEKRGLYLRSKELRDRVMGYDIKVESEKVLETLLRSSNSA
bioluminescence relative to cells expressing nnH3H_WT and nnLuz_WT (Pichia pastoris GS115; co-expressed with nnLuz_WT, addition of 100 μM hispidin): greater bioluminescence | greater luminescence relative to nnH3H_WT (Pichia pastoris GS115; combined with nnLuz_WT, mcitHispS and NpgA, caffeic acid): 3.9 fold | greater luminescence compared with nnH3H_WT [1]: 2.5 fold

B2: nnLuz_v3: N. nambi luciferase with substitutions T99P, T192S, A199P combined (SEQ ID NO: 2) (protein, listed as Neonothopanus nambi)
chain: MRINISLSSLFERLSKLSSRSIAITCGVVLASAIAFPIIRRDYQTFLEVGPSYAPQNFRGYIIVCVLSLFRQEQKGLAIYDRLPEKRRWLADLPFREGPRPSITSHIIQRQRTQLVDQEFATRELIDKVIPRVQARHTDKTFLSTSKFEFHAKAIFLLPSIPINDPLNIPSHDTVRRTKREIAHMHDYHDCSLHLALAPQDGKEVLKKGWGQRHPLAGPGVPGPPTEWTFLYAPRNEEEARVVEMIVEASIGYMTNDPAGKIVENAK
production of bioluminescence relative to parental nnLuz_WT (HEK293 cells): substantially greater | enzyme stability relative to unmodified parental luciferase [2]: greater enzyme stability | production of bioluminescence relative to parental nnLuz [3]: substantially greater

B3: nnLuz_v4 (protein, listed as Neonothopanus nambi)
chain: MRSTISLSSLLERLSKLSSRSIAITCGVVLASAIAFPIIRRDYQTFLEVGPSYAPQNFRGYITVCVLSLFRQEQKGLAIYDRLPEKRRWLADLPFREGPRPSITSHIIQRQRTQLVDQEFATRELIDKVIPRVQARHTDKTFLSTSKFEFHAKAIFLLPSIPINDPLNIPSHDTVRRTKREIAHMHDYHDCSLHLALAPQDGKEVLKKGWGQRHPLAGPGVPGPPTEWTFLYAPRNEEEARVVEMIVEASIGYMTNDPAGKIVENAKGS
reduction of luminescence after incubation at 40° C. ([4]; 10 min at 40° C.): no loss of activity | reduction of luminescence after incubation at 45° C. ([4]; 10 min at 45° C.): 3 fold | bioluminescence relative to cells expressing nnLuz_WT (Pichia pastoris GS115; addition of 50 μM luciferin): greater bioluminescence | greater luminescence relative to nnLuz_WT (Pichia pastoris GS115; combined with nnH3H_v2, mcitHispS and NpgA, caffeic acid): 1.9 fold | Km relative to nnLuz_WT [5]: similar | higher Vmax relative to nnLuz_WT ([5]; normalized to HiBiT): 4.2 fold
